The values that follow come from PMC9129000, “RADA-dependent branch migration has a predominant role in plant mitochondria and its defect leads to mtDNA instability and cell cycle arrest”.

The target in this series is T1, RADA K201A (Arabidopsis thaliana, UniProt F4K8X8 49-627, K201A).
T1 sequence: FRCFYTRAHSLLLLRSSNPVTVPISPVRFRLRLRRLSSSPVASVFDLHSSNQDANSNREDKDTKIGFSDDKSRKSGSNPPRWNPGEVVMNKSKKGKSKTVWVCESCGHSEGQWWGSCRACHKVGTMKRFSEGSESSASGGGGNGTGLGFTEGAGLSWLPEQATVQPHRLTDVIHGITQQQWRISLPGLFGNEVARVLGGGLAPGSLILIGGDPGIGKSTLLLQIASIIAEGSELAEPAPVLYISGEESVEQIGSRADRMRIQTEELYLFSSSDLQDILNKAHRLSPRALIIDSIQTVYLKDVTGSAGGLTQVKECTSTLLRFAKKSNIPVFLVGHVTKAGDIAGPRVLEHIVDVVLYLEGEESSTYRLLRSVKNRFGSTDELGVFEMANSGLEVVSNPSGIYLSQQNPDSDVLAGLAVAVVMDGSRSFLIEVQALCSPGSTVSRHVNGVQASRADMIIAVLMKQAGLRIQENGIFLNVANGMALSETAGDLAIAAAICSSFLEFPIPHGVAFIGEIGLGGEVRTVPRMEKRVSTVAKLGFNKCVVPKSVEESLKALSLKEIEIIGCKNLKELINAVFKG
In words: EMSA; affinity comparable to WT; 20 mM Tris-HCl pH 7.5, 50 mM KCl, 5 mM MgCl2, 0.5 mM EDTA, 10% glycerol, 1 mM DTT, protease inhibitors; 20 C, 20 min; 8 or 4.5% PAGE in TBE at 4 C. The note with it: protein: recombinant; tags: N-terminal His (pET28a); chain copies: 6; label: 5'-32P; single strand. (In general: A gel shift assay detects complexes by their altered migration in electrophoresis.)

B1: EMSA ssDNA (ssDNA)
DNA: GACGCTGCCGAATTCTACCAGTGCCTTGCTAGGACATCTTTGCCCACCTGCAGGTTCACCC
For B1, the binding result is reported as “binds”.
